The values that follow come from patent publication US20260250328A1 (published 2026).

Common to all, as to experiment: SPR
For one assay, the target named is P2-4G.
In assay [1] the target is P2-2C-RBD (insect cell expression system).
Assay [2] concerns the target P2-3E-RBD (insect cell expression system).
Assay [3] has as its target P1-5B-RBD (insect cell expression system).
For assay [4], the target named is P2-3D-RBD (insect cell expression system).
Assay [5] addresses P1-1G-RBD (insect cell expression system).
Assay [6] concerns the target P2-3A-RBD (insect cell expression system).
Assay [7] has as its target P2-3E-RBD (mammalian cell expression system).
In assay [8] the target is P2-2C-RBD (mammalian cell expression system).
For assay [9], the target named is P1-5B-RBD (mammalian cell expression system).
For assay [10], the target named is P2-5C-RBD (mammalian cell expression system).
The target of assay [11] is P2-3A-RBD (mammalian cell expression system).

B1: HEV-p239 (other)
chain: IALTLFNLADTLLGGLPTELISSAGGQLFYSRPVVSANGEPTVKLYTSVENAQQDKGIAIPHDIDLGESRVVIQDYDNQHEQDRPTPSPAPSRPFSVLRANDVLWLSLTAAEYDQSTYGSSTGPVYVSDSVTLVNVATGAQAVARSLDWTKVTLDGRPLSTIQQYSKTFFVLPLRGKLSFWEAGTTKAGYPYNYNTTASDQLLVENAAGHRVAISTYTTSLGAGPVSISAVAVLAPHSV
In the case of B1, the Kd with P2-4G came out at 3.4 nM; in [1] it was 3.71 nM; in [2] it was 1.41 nM; in [3], 1.13 nM; in assay [4], 1.8 nM; in [5], 3.57 nM. Moreover, the Kd turned out to be 0.655 nM in assay [6]; 1.24 nM in assay [7]; 1.02 nM in [8]; 0.131 nM in assay [9]; 0.874 nM in [10]; 0.0364 nM in assay [11].
